Assay [1] deals with T1, pΔPH-PKB-ΔC (Homo sapiens, UniProt P31751).
T1 construct: pΔPH-PKB-ΔC (residues 146 to 460, phosphorylated in vitro on Thr-309); 6xHis (N, cleaved yes); made in house; host or cells: Sf9 insect cells / baculovirus (pFastBacHTa)
Put plainly: Isothermal titration calorimetry, peptide binding to pΔPH-PKB-ΔC. The method, then: (C) Isothermal titration calorimetry measurements of the binding of PIFtide to pΔPH-PKB-ΔC (left) and ΔPH-PKB-ΔC (right). Upper panel, raw data of the titration of PIFtide into pΔPH-PKB-ΔC. Lower panel, integrated heats of injections, corrected for the heat of dilution, with the solid line corresponding to the best fit of the data using the MicroCal software.
Using isothermal titration calorimetry, the affinity between PIFtide and both pΔPH-PKB-ΔC and ΔPH-PKB-ΔC was determined (FIG. 5C). […] The observed large decrease in entropy is […] typical of protein-peptide interactions, for example SH2-domain-phosphotyrosine peptide complexes (Ladbury et al., 1996), and is consistent with an ordering of both the protein, presumably the αB- and αC-helices of the N-lobe, and peptide on complex formation.

Assay [2] deals with T2, pΔPH-PKB-ΔC (PKBβ residues 146 to 460, phosphorylated in vitro on Thr-309) (Homo sapiens, UniProt P31751).
T2 construct: pΔPH-PKB-ΔC (residues 146 to 460, phosphorylated in vitro on Thr-309); 6xHis (N, cleaved yes); made in house; host or cells: Sf9 insect cells / baculovirus (pFastBacHTa)
T2 sequence (P31751 146-460, stated change not applied): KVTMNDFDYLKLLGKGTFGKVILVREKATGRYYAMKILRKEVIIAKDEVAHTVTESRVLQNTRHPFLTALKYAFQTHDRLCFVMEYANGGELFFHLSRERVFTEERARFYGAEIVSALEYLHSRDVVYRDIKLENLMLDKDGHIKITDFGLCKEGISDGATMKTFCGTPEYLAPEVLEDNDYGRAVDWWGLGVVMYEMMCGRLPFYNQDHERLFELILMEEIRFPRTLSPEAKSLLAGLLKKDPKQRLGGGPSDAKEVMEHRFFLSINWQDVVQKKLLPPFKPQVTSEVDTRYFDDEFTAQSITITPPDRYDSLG
Description: Protein kinase B assay with Crosstide as substrate, peptide stimulation of pΔPH-PKB-ΔC. The class given is biochemical. To be noted: for stimulation of pΔPH-PKB-ΔC activity (in words): PIFtide peptides at 210-250 μM, PKB HM-peptide up to 1.2 mM; for fold lower affinity than PIFtide, from estimated EC50: PKB not phosphorylated on Ser 474. How it is done:
To test the model that Ser 474 phosphorylation promotes an interaction between the hydrophobic motif and the induced hydrophobic groove of the N-terminal lobe, thereby causing an allosteric activation of the kinase, the ability of peptides modelled on the hydrophobic motif of PKB to activate the enzyme via an intermolecular association with the N-terminal lobe was assessed.
(§1) PKB was assayed essentially as described by Andjelkovic et al. (1999) with 30 μM Crosstide (GRPRTSSAEG) as substrate except the protein kinase A inhibitor peptide was not added to the reactions. For peptide stimulation experiments the various peptides were dissolved in water and added to the kinase assay mix prior to adding the PKB protein. Peptides were synthesized by Franz Fischer at the FMI or purchased from Neosystem, Strasburg, France.
(§2) All experiments were performed in either duplicate or triplicate.

The target of assay [3] is pΔPH-PKBβ-ΔC (human PKBβ residues 146 to 460, phosphorylated in vitro on Thr-309) (human) (UniProt P31751). Description: cell-based or functional assay.
Sequence of pΔPH-PKBβ-ΔC (human PKBβ residues 146 to 460, phosphorylated in vitro on Thr-309) (human) (P31751 146-460, stated change not applied): as above
Assay [4] addresses T3, ΔPH-PKB phosphorylated on both Thr 309 and Ser 474 (Homo sapiens, UniProt P31751).
T3 construct: Purification of ΔPH-PKBβ-ΔC (Residues 146-460) and ΔPH-PKBβ (Residues 146-481); 6xHis (N, cleaved yes); made in house; host or cells: Sf9 insect cells / baculovirus (pFastBacHTa)
Put plainly: Protein kinase B assay with Crosstide, peptide stimulation of doubly phosphorylated ΔPH-PKB. The format is biochemical. The method, then:
as §1, §2

In assay [5] the target is T4, His tagged pΔPH-PKB-ΔC wild type (Homo sapiens, UniProt P31751).
T4 construct: pΔPH-PKB-ΔC (residues 146 to 460, phosphorylated in vitro on Thr-309); made in house; host or cells: HEK cells (transient expression), purified on Ni-NTA agarose
T4 sequence (P31751 146-460, stated change not applied): as above
Put plainly: PIFtide responsiveness of His tagged wild type pΔPH-PKB-ΔC expressed in HEK cells. The format is biochemical. To be noted: incomplete Thr 309 phosphorylation. The method, then:
To test the notion that a hydrophobic groove is induced in PKB to engage the hydrophobic motif, and activate the kinase, a series of His tagged pΔPH-PKB-ΔC hydrophobic groove mutants were prepared and their responsiveness to PIFtide assessed. PKB mutants were transiently expressed in HEK cells, phosphorylated in vitro with PDK1, and purified using Ni-NTA agarose. […] Wild type PKB prepared using this procedure was stimulated ˜5-fold by 130 μM PIFtide (FIG. 6B).
as §1

Assay [6] concerns the target ΔPH-PKBβ-ΔC (human PKBβ residues 146 to 460, not phosphorylated on Thr-309) (human) (UniProt P31751). Description: isothermal titration calorimetry. (Isothermal titration calorimetry measures the heat released or taken up as one component is titrated into another.)
Assay [7] concerns the target His tagged pΔPH-PKB-ΔC, wild type, transiently expressed in HEK cells (human) (UniProt P31751). Put plainly: cell-based or functional assay.
Assay [8] concerns the target ΔPH-PKB (human PKBβ residues 146-481) phosphorylated on Thr 309 (human) (UniProt P31751). Put plainly: cell-based or functional assay.
The target in assay [9] is His tagged pΔPH-PKB-ΔC hydrophobic groove mutant V194A-V198A (human) (UniProt P31751). Description: cell-based or functional assay.
Sequence of His tagged pΔPH-PKB-ΔC hydrophobic groove mutant V194A-V198A (human) (P31751 146-460 V194A/V198A limits assumed): as the sequence (P31751 146-460, stated change not applied) above, with V49A, V53A counted along it
The target of assay [10] is pΔPH-PKBβ-ΔC (human PKBβ residues 146 to 460, phosphorylated in vitro on Thr-309) (human) (UniProt P31751). Description: cell-based or functional assay. This is another data set of the same source.
The mark [11] stands for this setting: assuming activation at saturating peptide similar to that induced by PIFtide, read-out: EC50 estimated from FIG. 5A.

Entries after “also recorded” stand apart in the source; their conditions may differ. Like-named read-outs stand apart in the source and are kept apart here. Square brackets hold non-standard residues; d marks the D form. Peptide text beside a SMILES is read from it. pS = N[C@@H](COP(=O)(O)O)C(=O)O

Sequence of ΔPH-PKBβ-ΔC (human PKBβ residues 146 to 460, not phosphorylated on Thr-309) (human) (P31751 146-460, stated change not applied): as the sequence (P31751 146-460, stated change not applied) above
T3 sequence (P31751 146-481, stated change not applied): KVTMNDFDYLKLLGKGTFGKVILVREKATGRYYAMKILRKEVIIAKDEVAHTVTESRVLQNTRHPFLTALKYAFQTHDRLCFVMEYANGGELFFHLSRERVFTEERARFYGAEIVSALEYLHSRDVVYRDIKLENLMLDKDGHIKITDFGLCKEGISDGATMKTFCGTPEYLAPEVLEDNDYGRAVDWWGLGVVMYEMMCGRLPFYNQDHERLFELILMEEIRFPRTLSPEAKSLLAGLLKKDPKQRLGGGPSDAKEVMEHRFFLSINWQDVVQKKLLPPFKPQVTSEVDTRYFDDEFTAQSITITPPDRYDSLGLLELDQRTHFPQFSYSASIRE
Sequence of His tagged pΔPH-PKB-ΔC, wild type, transiently expressed in HEK cells (human) (P31751 146-460, stated change not applied): as the sequence (P31751 146-460, stated change not applied) above
T1 sequence (P31751 146-460, stated change not applied): as above

A word on the EC50: it is the concentration that produces a half-maximal response. Consider `CC[C@H](C)[C@H](NC(=O)[C@H](Cc1ccc(O)cc1)NC(=O)[C@H](C)NC(=O)[C@H](Cc1ccccc1)NC(=O)[C@H](CC(=O)O)NC(=O)[C@H](CCCNC(=N)N)NC(=O)[C@H](Cc1ccccc1)NC(=O)[C@H](CCSC)NC(=O)[C@H](CCC(=O)O)NC(=O)[C@H](CCC(N)=O)NC(=O)[C@H](CCC(=O)O)NC(=O)[C@H](CCC(=O)O)NC(=O)[C@H](CCC(=O)O)NC(=O)[C@H](CO)NC(=O)[C@H](CC(C)C)NC(=O)[C@@H](NC(=O)[C@H](CCCNC(=N)N)NC(=O)[C@@H]1CCCN1C(=O)[C@H](CCC(=O)O)NC(=O)[C@@H](N)CCCNC(=N)N)[C@@H](C)CC)C(=O)N[C@@H](C)C(=O)N[C@@H](CC(=O)O)C(=O)N[C@@H](Cc1c[nH]c2ccccc12)C(=O)O` [PIFtide(D->A)] (H-REPRILSEEEQEMFRDFAYIADW-OH; N-terminus and C-terminus assumed), for which the “fold lower affinity relative to PIFtide, ITC” value in assay [1] was “approximately 25 fold”. Moreover, in [2], the “fold lower affinity than PIFtide, from EC50” value is recorded as 10 fold. For the same molecule, in [2] (Crosstide substrate, value of PIFtide(D->A) called estimated, read-out: EC50 for activation of pΔPH-PKB-ΔC), the EC50 is 30 µM. Moreover, the “maximal activation of pΔPH-PKB-ΔC compared with wild type PIFtide (in words)” value in [2] (saturating / high concentrations of the mutant peptide) is recorded as “identical to that of the wild type peptide; also recorded: could activate PKB maximally”.
As for “PKB HM-P (peptide modelled on the phosphorylated hydrophobic motif of PKBβ, residues 460-481)”, in assay [3], the estimated EC50 of activation of kinase activity is 2300 µM; the fold lower affinity than PIFtide, from the estimated EC50 of activation is 1000 fold; the stimulation of PKB kinase activity towards Crosstide was 4 fold.
In the case of “MFRDFDYIADW [PIFtide1, 11-residue peptide encompassing the six-residue hydrophobic motif of PIFtide]”, the “stimulation of pΔPH-PKB-ΔC activity (in words)” value in assay [2] (Crosstide substrate) is “essentially recapitulates the activation”.
Regarding GLLELDQRTHFPQFSYSASIRE [PKB HM-S], in assay [2] (Crosstide substrate), the “stimulation of pΔPH-PKB-ΔC activity (in words)” value was “did not stimulate”.
Regarding `CC[C@H](C)[C@H](NC(=O)[C@H](CO)NC(=O)[C@H](C)NC(=O)[C@H](CO)NC(=O)[C@H](Cc1ccc(O)cc1)NC(=O)[C@H](CC(=O)O)NC(=O)[C@H](Cc1ccccc1)NC(=O)[C@H](CCC(N)=O)NC(=O)[C@@H]1CCCN1C(=O)[C@H](Cc1ccccc1)NC(=O)[C@H](Cc1c[nH]cn1)NC(=O)[C@@H](NC(=O)[C@H](CCCNC(=N)N)NC(=O)[C@H](CCC(N)=O)NC(=O)[C@H](CC(=O)O)NC(=O)[C@H](CC(C)C)NC(=O)[C@H](CCC(=O)O)NC(=O)[C@H](CC(C)C)NC(=O)[C@H](CC(C)C)NC(=O)CN)[C@@H](C)O)C(=O)N[C@@H](CCCNC(=N)N)C(=O)N[C@@H](CCC(=O)O)C(=O)O` [PKB HM-D] (H-GLLELDQRTHFPQFDYSASIRE-OH; N-terminus and C-terminus assumed), in assay [2], the “fold lower affinity than PIFtide, from estimated EC50” value was approximately 1000 fold. The EC50 in assay [2] (setting [11]) was 3600 µM.
Turning to `CC[C@H](C)[C@H](NC(=O)[C@H](CO)NC(=O)[C@H](C)NC(=O)[C@H](CO)NC(=O)[C@H](Cc1ccc(O)cc1)NC(=O)[C@H](COP(=O)(O)O)NC(=O)[C@H](Cc1ccccc1)NC(=O)[C@H](CCC(N)=O)NC(=O)[C@@H]1CCCN1C(=O)[C@H](Cc1ccccc1)NC(=O)[C@H](Cc1c[nH]cn1)NC(=O)[C@@H](NC(=O)[C@H](CCCNC(=N)N)NC(=O)[C@H](CCC(N)=O)NC(=O)[C@H](CC(=O)O)NC(=O)[C@H](CC(C)C)NC(=O)[C@H](CCC(=O)O)NC(=O)[C@H](CC(C)C)NC(=O)[C@H](CC(C)C)NC(=O)CN)[C@@H](C)O)C(=O)N[C@@H](CCCNC(=N)N)C(=O)N[C@@H](CCC(=O)O)C(=O)O` [HM-P, GLLELDQRTHFPQFpSYSASIRB] (H-GLLELDQRTHFPQF[pS]YSASIRE-OH; N-terminus and C-terminus assumed), in [4], the “activation of ΔPH-PKB phosphorylated on both Thr 309 and Ser 474 (in words)” value is on record as “did not further activate”. Besides, the “fold lower affinity than PIFtide, from estimated EC50” value in assay [2] is on record as approximately 1000 fold. Besides, in [2] (setting [11]), the half-maximal effective concentration (EC50) was 2300 µM. Besides, the “activation of wild type PKB by PKB HM-peptide (in words)” value in [5] is on record as “did not elicit measurable activation”.
In assay [6], “PIFtide (synthetic peptide encompassing the PRK2 hydrophobic motif)” displayed a TΔS of -38.5 kJ/mol and a ΔH of -66.9 kJ/mol. The stimulation of PKB kinase activity by 130 µM PIFtide in [7] turned out to be 5 fold. In [3], the EC50 of activation of kinase activity worked out at 3 µM; the activation of PKB kinase activity was 15 fold; the peptide concentration giving maximum and saturable activation came to 20 µM; the specific activity of pΔPH-PKB-ΔC maximally activated by PIFtide turned out to be 350 nmol/min/mg. In assay [8], this molecule showed an activation of PKB kinase activity of 5 fold. Moreover, in [9], the PIFtide activation relative to wild type (% of wild type) came to 25.

B1: PKB HM-D (PKB hydrophobic motif peptide with aspartate at position 474) (peptide)
peptide: GLLELDQRTHFPQFDYSASIRE
As for B1, in assay [10], the estimated EC50 of activation of kinase activity was 3600 µM; the fold lower affinity than PIFtide, from the estimated EC50 of activation was 1000 fold; the stimulation of PKB kinase activity towards Crosstide was determined as 3 fold.

The values above are taken from patent US20040009569A1, “Kinase crystal structures and materials and methods for kinase activation” (priority 2001, published 2004).
